# The nanobody polyreactivity screen of Harvey et al. (2022)
# Assay: yeast display, Sf9 membrane polyspecificity reagent, FACS + sequencing; frameworks hold sequencing errors
# Summary of the method: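 Synthetic nanobody libraries on Saccharomyces cerevisiae BJ5465 were galactose-induced for 36–48 hours, stained 1 hour at 4 °C with 10% biotinylated, detergent-solubilized Sf9 membrane reagent and enriched on streptavidin microbeads. FACS then separated cells into low and high (top ~1%) gates by anti-HA (expression) and streptavidin (reagent binding) fluorescence. Genes were colony-PCR amplified, MiSeq 2 × 250 sequenced and CDR-length filtered. A clone's polyreactivity label is that of its gate of origin.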
row,Sequence,polyreactivity (PSR sort gate)
1,QVELQVSGGGLVRAGGSLRLSCAASGNIFDADIMGWYRQAPGKERELVASITGGGSTSYAESAKGRFTISRDNAKNAVYLQMKSLKPEDTAVYYCARDSWWYHHYDYWGQGTQVTVSS,low polyreactivity
2,QVQLVESGGGLVQAGGSLRLSCAASGSTFGTNVMGWYRQAPGKERELVAAISGRGGRTYYADSVKGRFTISRDNAKNTVYLQMNSLKPEDTAVYYCAAPRYYSREYDYWGQGTQVTVSS,high polyreactivity
3,QVQLVESGGGLVQAGGSLRLSCAASGFTFRLYAMGWYRPAPGKERELVARISSGGSTHYADSVKGRFTISRDNAKNTVSLQMNSLKPEDTAVYYCAAGWGYWRSYGSWGQGTQVTVSS,high polyreactivity
4,QVQLVESGGGLVQAGGSLRLSCAASGFIFAYNAMGWYRQAPGKERELVAAISRSGGSTRYADSVKGRFTISRDNAKNTVYLQMNSLKPEDTAVYYCAARSGSWGQGTQVTVSS,high polyreactivity
5,QVQLVESGGGLVQAGGSLRLSCAASGSTVGSNAMGWYRQAPGKERELVAAISSDGSTNYADSVKGRFTISRDNAKNTVSLQMNSLKPEETAVYYCKAVVQDADWGYDYWGQGTQVTLSS,low polyreactivity
6,QVQLVESGGGLVQAGGSHRLSCSASGLTFSYYAMGGYRQEPGKERELVAAITRTGDRTYYADSVKGRFTISRDNAKNTVYLQMNSLKPEDTAVYYCAAKWRIVGSRQWYDYWGQGTQVTVSS,high polyreactivity
7,QVQLVESGGGLVQAGGSLRLSCAASGRIFSGNVMGWYRQAPGKERELVAAISRSGGSTYYADSVKGRFTISRDNAKNTVYLQMNSLKPEDTAVYYCADVPTSNSFRSSFYYWGHGTQVTVSS,high polyreactivity
8,QVQLVESGGGLVQAGGSLRLSCAASGFTFWTYAMGWYRQAPGKERELVAAIDSGGSTYYADSVKGRFTISRDNAKNTVYLQMNSLKPEDTAVYYCAKDVLAPYSRHDYWGQGTQVTVSS,low polyreactivity
9,QVQLVESGGGLVQAGGSLRLSCAASGIIFYDYAMGWYRQAPGKERELVAAITSNGDNTYYADSVKGRFTISRDNAKNTVYLQMNSLKPEDTAVYYCAVDGSFAADFDNYLEEYGYWGQGTQVSVSS,low polyreactivity
10,QVQLVESGGGLVHAGGSLRLSCASSGIIFDYYAMAWYRQAPGKERELVASITGTTGSTYYADSVKGRFTISRDNAKINVYLQMNSLKPEDTAVYYCNVDTPYGGLVTMDYWGQGTQVTVSS,low polyreactivity
11,QVQLVESGGGLVQAGGSLRLSCAASGRIFTYNARGWYRQAPGKERELVAAITYRGSSTYYADSVKGRFTISRDIAKNTVYLQMNSLKAEDTAVYYCAAVFSGFYYAYDYWGQGTQVTVSS,high polyreactivity
12,QVQLVESGGGLVQAGGSLRLSCAASGFTFDDYAMGWYRQAPGKERELVATITNSDSSTYYADSVKGRFTISRDNAKNTVYLQMNSLKPEDTAVYYCNADGEGADSDYDYWGQGTQVTVSS,low polyreactivity
13,QVQLVESGGGLVQAGGSLRLSCAASGFTFGWYAMGWDIQAPGKERELLATISWSGSSTYYADSVKGLFTISRDNAKNTVYLQMNSLKPEDTAVYYCNAVYGGFVVLRYDYWGQGTQVTVSS,high polyreactivity
14,QVQLVESGGGLVQAGGSRRLSCAASGSTFEYNAMGWYRQAPGKERELVASSTNYADSVKGRFTISRDNAKNTVYLPMNSLKPEDTAVYYCAREQGVNRNHDYWGQGTQVTVSS,low polyreactivity
15,QVQLVDSGGGLVQAGGSLLLICAASGSTIPRNAMGWYRQAPGKERELVAAITSGGSTNYADSVKGRFTISRDNAKNTVYLQMNSLKPEDTAVYYCAADEQVNTQYVVWGDYWGHGTQVTVSS,low polyreactivity
16,QVQLVESGGGLVQAGGSLRLSCAASGRIFRYYVMGWYRQAPGKERELVATITSGGSTNYADSVKGRFTISRDNAKNTVYLQMYSLKPEDTAVYYCARGTSTCTYYWYGYWGQGTQVTVSS,low polyreactivity
17,QVQLVESGGGLVQAGGSLRLSCAASGSTFTRYGMGWYRQAPGKERELGAAITTSGSSTYYADSVKGRFTISRDNAKNTVYLQMNSLKPEDTAVYYCAADWSSWGFDYWGQGTQVTVSS,low polyreactivity
18,QVQLVESGGGLVQAGGSLRLSCAASGRIFRLYAMGWYSQEPGKDRELVATITSGGTYYADSVKGRFTISRDNAKNTVYLQMISLSPEDTAVYYCTARRRLRYDFWGQGTQVTVSS,low polyreactivity
19,QVQLVESGAALVQAGGSLSLSCAASGLTFYYYAMGWYRQAPGKERELVAAITSGGSTNYADSVKGRFTISRDNAKNTVFLQINSLKPEDTAVYYCAADPRYSFWGMYYWGLGTQVTVSS,low polyreactivity
20,QVQLVESGGGLVQAGGSLRLSCAASGLIFTNNAMGWYRQAPGKERELVAGINSGGRTNYADSVKGRFTISRDNAKNTVYLQKNSLKPEDTAVYYCAARWWVKSRPNRYNYWGQGTQVTVSS,high polyreactivity
21,QVQLVETWGGLVQAGGTLRLSCAASGSIFSPYAMGWYRQAPGKERELVAAISRNGGTTYYADSVKGRFTISRDNAKNTVYLQMNSLKPEDTAVYYCARLYYTQKDSKTGYGYWGQGTQVTVSS,high polyreactivity
22,QLQLVESGGGLFQAGGSLRISCAASGRTFLRNAMGSYRQPPGKEREFVATISAGGGSTYYADSVKGRFTISRDNAKNTVYLQMNSLKPEDTAVYYCAARYRAGPGYGMDSCGQGTQVTVSS,high polyreactivity

row,Sequence,polyreactivity (PSR sort gate)
1,QVQLVESGGGLVQAGGSLRLSCAASGSTFPPNAMGWYRQAPGKERELVAAISFSSGRTYYADSVKGRFTISRDNAKNTVYLQMNSLKPEDTAVYYCAADHGYWGQGTQVTVSS,low polyreactivity
2,QVQLVESGGGLVQAGGRLRLSCAASGSIFSSYAMGWYRQAPGKERELVAAITNSGVSTYYADSVKGRFTISRDNAKYTVYLQMNSLKPEVTASITALKTVVRLPTVYTPLLNWYYYWGQGTQVTVSS,low polyreactivity
3,QVQLVESGGGLVQPRGSLRLSCAASGSILGHYAMGWYRQAPGKERELVAAISWRGGTTYYADSVKGRFTISRDNAKNTVYLQMNSLKPEDTAVYYCNADVWVYPYDYWGQGTQVTVSS,low polyreactivity
4,QFQLVESGGCLVQAGGSLRLSCAASGRTFGWYAMGWYRQAPGKERELVAAISTRGTRTYYADSVKGRFTISRDNAKITDYLQMYSLKPEDTAVYYCNAKRRAVTTAHGIPEEDYWGQGTKVTVSS,high polyreactivity
5,QVQLVESGGGLVQAGGSLRLICAASGLIFWGYAMGWYRQAPGKERELVAAISSSGGSTYYADSVKGRFTISRDNAKNTVYLQINSLKPEDTAVYYCNADYTYYPGYDYWGQGTLVTVSS,low polyreactivity
6,QVQLQESVGGLVQACGSLRLSCAASGYIFSHQYMGWYRQAPGKERELVASISPGATTNYADSVKGRFTISRDNAKNTVYLQMNSLKPEDTAVYYYAVYQILDRRLSYWGQGTQVTVSC,high polyreactivity
7,QVHLVESGGGLVQAGGSIRLSCAASGFIFGSYAMGWYRPAPGKERELVAVISASGGGTYYADSVKGRFTISRDNAKYTVYLQMNSLKPEDTAVYYCAAKGVRGFAGYGYWGQGTQVTVSS,high polyreactivity
8,QVQLVESVGGLVQAGGSLRISCAASGSTFPWYAMGWYRQAPGKERELVASITSGTTTNYADSVKGRFTISRDNAKNTVYLQRNSLKPEDTADYYCAASWVYQYDYWGQGTQVSVSS,low polyreactivity
9,QVQLVESGGCLVQAGGSLRLSCAASGSTLGYYAMGWYRQAPGKERELVASIRWDTASTYYADSVKGRFTISRDNAKNTVYLQMNSLKPEDTAVYYCNAGRPRFYRSRWYYYGYGYWGQGTQVTVSS,high polyreactivity
10,QVQLVESGGGLVQAGGSLRLSCAASGFTFPYYAMGWYRQAPGKERELVAAINSVGSTYYADSVKGRFTISRDNAKNTVYLQMNSLKPEDTAVYYCNKRPSHWRHYIMDYWGQGTQVTVSS,high polyreactivity
11,QVQLEESGGGLVQAGGSLRLSCAASGSTFYYYALGWYRQAPGKERELVATINKIVGITYYADSVKGRFTISRDNAKNTVYLQRNSLKPEDTAVYYCAVQDTSYDVQYSYGYWGQGTQVNVSS,low polyreactivity
12,QVQLEESGGGLFQAGGSLRLSCAASGSTFADNAMGWYRQATGKEAEFVAGISTNGGSTYYADSVKGRFTISRDNAKNTVYLQMNSLKPEDTAVYYCNADSIDPFLYDYWGQGTQVTVSS,low polyreactivity
13,QVQLQESGGGLVQAGGSLRLICSASGTNFTARFIGWYRQAPGKERELVATITDGGNTNHADSVKGRFTISRDNAKNTVFLQMNSLKPEDAAVYYCAAGEVDIDTLLYWGQGSQVTVSS,low polyreactivity
14,QVQLVESGGGLVQAGGSLRLSCAASGFNFTLNTMGWYRQAPGKERELVAAINSGDSTYADSVKGRFTISRDNAKNTVYLQMNSLKPEDTAVYYCNADPDWWYPFNYWGQGTQVTVSS,low polyreactivity
15,QVQLVESGGGLVQAGGSLRLSCAASGRTFVRYAMGWYRQAPGKERELVAAISRTGGTTYYADSVKGRFTISRDNAKNTVYLQMNSLKPEDTAVYYCNADPFYKYGYWGQGTQVTVSS,high polyreactivity
16,QVQLVESGGALVQAGGSLRLSCAASGSTFAYNAMGWYRQAPVKERELVAAITWNGGDTYYADSVKGRFTISRDNAKNTVYLQMNSLKPEDTAVYYCAAEDTYYRDSDYWGQGTQVTVSS,low polyreactivity
17,QVQVVESGGGLVQAGGSLRLSCAASGSTFGVYAMGWYRQAPGKEWELVAAISASTGSTYYADSVKGRFTISRDNAKQTVYLQMNSRKPEHTAVYYCAAAGYGKVRGDYWGQGTQVTVTS,low polyreactivity
18,QVQLVESGGGLVQAGGSLRLSCAASGSTFDSNVMGCYRQAPGKERELVAVINGSGSNTYYADSVKGRFTISRDNAKNTVYLQMNSLKPEDTAVYYCAARVYVSRSKRLNYWGQGTQVTVSS,high polyreactivity
19,QVQLVESGGGLVQAGGSLRLSCAASGLIFSYNAMGWYRQAPGKERELVATIRRVGSTNYADSVKGRFTISRDNAKNTVYLQMNSLKPEDTAVYYCAARSLRYGRGMYYWGQGTQVTVSS,high polyreactivity
20,QVQLVDSGGGLVQAGGSLRLSCAASGSSVKTYAMGWYRQAPGKERELVASISYSGDTTYADSVKGRFTISRDNAKNSVYLQMNSLKPEDTAVYYCAAGWYYYYYSYQYWDYDYWGQGTQVTVSS,high polyreactivity
21,QVQLEESGGGLVQAGGRLRLSCAASGSIWSYAMGWYRQAPGKERELVAAISSTGGSTYYADSVKGRFTISRDNAKNTVYLQMNSLKPEDTAVYYCAKGRRYDQSHYNYWGQGTQVNVSS,high polyreactivity
